# From patent publication US20100092982A1 (University of California, published 2010)
# B1: Gal4 DBD-GRIP1c C-terminal fragment starting at amino acid 1306 (GRIP1c bisected between 1305 and 1306) (other, UniProt P04386 1-147, looked up)
# chain: MKLLSSIEQACDICRLKKLKCSKEKPKCAKCLKNNWECRYSPKTKRSPLTRAHLTEVESRLERLEQLFLLIFPREDLDMILKMDSLQDIKALLTGLFVQDNVNKDAVTDRLASVETDMPLTLRQHRISATSSSEESSNKGQRQLTVSSQQPDPGFTGATTPQSPLMSPRMAHTQSPMMQQSQANPAYQPTSDMNGWAQGSMGGNSMFSQQSPPHFGQQANTSMYSNNMNISVSMATNTGGLSSMNQMTGQMSMTSVTSVPTSGLPSMGPEQVNDPALRGGNLFPNQLPGMDMIKQEGDASRKYC
# B2: Gal4 DBD-GRIP1 amino acids 1121-1210 (N-terminal fragment of GRIP1c bisected between 1210 and 1211) (other, UniProt P04386 1-147, looked up)
# chain: MKLLSSIEQACDICRLKKLKCSKEKPKCAKCLKNNWECRYSPKTKRSPLTRAHLTEVESRLERLEQLFLLIFPREDLDMILKMDSLQDIKALLTGLFVQDNVNKDAVTDRLASVETDMPLTLRQHRISATSSSEESSNKGQRQLTVSESSIMLEQKPPVFPQQYASQAQMAQGGYNPMQDPNFHTMGQRPNYTTLRMQPRPGLRPTGIVQNQPNQLRLQLQHRLQAQQNRQPLMNQI
# notes: also called the N-terminal fragment
# B3: Gal4 DBD-GRIP1c (GRIP1 1122-1462) (other, UniProt P04386 1-147, looked up)
# chain: MKLLSSIEQACDICRLKKLKCSKEKPKCAKCLKNNWECRYSPKTKRSPLTRAHLTEVESRLERLEQLFLLIFPREDLDMILKMDSLQDIKALLTGLFVQDNVNKDAVTDRLASVETDMPLTLRQHRISATSSSEESSNKGQRQLTVSSSIMLEQKPPVFPQQYASQAQMAQGGYNPMQDPNFHTMGQRPNYTTLRMQPRPGLRPTGIVQNQPNQLRLQLQHRLQAQQNRQPLMNQISSVSNVNLTLRPGVPTQAPINAQMLAQRQREILNQHLRQRQMQQQVQQRTLMMRGQGLNVTPSMVAPAGLPAAMSNPRIPQANAQQFPFPPNYGISQQPDPGFTGATTPQSPLMSPRMAHTQSPMMQQSQANPAYQPTSDMNGWAQGSMGGNSMFSQQSPPHFGQQANTSMYSNNMNISVSMATNTGGLSSMNQMTGQMSMTSVTSVPTSGLPSMGPEQVNDPALRGGNLFPNQLPGMDMIKQEGDASRKYC
# notes: One entry covers both the yeast bait (pGBT9) and the mammalian vector (pM) fusion; also called pGBT9.GRIP1c; pM.GRIP1c
# B4: GST-CARM1 (enzyme)
# chain: AAAATAVGPGAGSAGVAGPGGAGPCATVSVFPGARLLTIGDANGEIQRHAEQQALRLEVRAGPDAAGIALYSHEDVCVFKCSVSRETECSRVGRQSFIITLGCNSVLIQFATPHDFCSFYNILKTCRGHTLERSVFSERTEESSAVQYFQFYGYLSQQQNMMQDYVRTGTYQRAILQNHTDFKDKIVLDVGCGSGILSFFAAQAGARKIYAVEASTMAQHAEVLVKSNNLTDRIVVIPGKVEEVSLPEQVDIIISEPMGYMLFNERMLESYLHAKKYLKPSGNMFPTIGDVHLAPFTDEQLYMEQFTKANFRYQPSFHGVDLSALRGAAVDEYFRQPVVDTFDIRILMAKSVKYTVNFLEAKEGDLHRIEIPFKFHMLHSGLVHGLAFWFDVAFIGSIMTVWLSTAPTEPLTHWYQVRCLFQSPLFAKAGDTLSGTCLLIANKRQSYDISIVAQVDQTGSKSSNLLDLKNPFFRYTGTTPSPPPGSHYTSPSENMWNTGSTYNLSSGVAVAGMPTAYDLSSVIAGGSSVGHNNLIPLANTGIVNHTHSRMGSIMSTGIVQGSSGAQGGGGSSSAHYAVNNQFTMGGPAISMASPMSIPTNTMHYGS
# notes: also called GST fusion protein of CARM1; glutathione S-transferase-CARM1; not shown: glutathione S-transferase (GST) as encoded by vector pGEX-4T1 (Pharmacia)
# B5: Gal4 DBD-GRIP1c N-terminal fragment ending at amino acid 1305 (GRIP1c bisected between 1305 and 1306) (other, UniProt P04386 1-147, looked up)
# chain: MKLLSSIEQACDICRLKKLKCSKEKPKCAKCLKNNWECRYSPKTKRSPLTRAHLTEVESRLERLEQLFLLIFPREDLDMILKMDSLQDIKALLTGLFVQDNVNKDAVTDRLASVETDMPLTLRQHRISATSSSEESSNKGQRQLTVSSSIMLEQKPPVFPQQYASQAQMAQGGYNPMQDPNFHTMGQRPNYTTLRMQPRPGLRPTGIVQNQPNQLRLQLQHRLQAQQNRQPLMNQISSVSNVNLTLRPGVPTQAPINAQMLAQRQREILNQHLRQRQMQQQVQQRTLMMRGQGLNVTPSMVAPAGLPAAMSNPRIPQANAQQFPFPPNYGI
# B6: Gal4 DBD-GRIP1 1211-1462 (C-terminal fragment of GRIP1c bisected between 1210 and 1211) (other, UniProt P04386 1-147, looked up)
# chain: MKLLSSIEQACDICRLKKLKCSKEKPKCAKCLKNNWECRYSPKTKRSPLTRAHLTEVESRLERLEQLFLLIFPREDLDMILKMDSLQDIKALLTGLFVQDNVNKDAVTDRLASVETDMPLTLRQHRISATSSSEESSNKGQRQLTVSSSVSNVNLTLRPGVPTQAPINAQMLAQRQREILNQHLRQRQMQQQVQQRTLMMRGQGLNVTPSMVAPAGLPAAMSNPRIPQANAQQFPFPPNYGISQQPDPGFTGATTPQSPLMSPRMAHTQSPMMQQSQANPAYQPTSDMNGWAQGSMGGNSMFSQQSPPHFGQQANTSMYSNNMNISVSMATNTGGLSSMNQMTGQMSMTSVTSVPTSGLPSMGPEQVNDPALRGGNLFPNQLPGMDMIKQEGDASRKYC
# notes: also called the C-terminal fragment
# B7: Gal4 DBD-GRIP1 fragment 1211-1350 (other, UniProt P04386 1-147, looked up)
# chain: MKLLSSIEQACDICRLKKLKCSKEKPKCAKCLKNNWECRYSPKTKRSPLTRAHLTEVESRLERLEQLFLLIFPREDLDMILKMDSLQDIKALLTGLFVQDNVNKDAVTDRLASVETDMPLTLRQHRISATSSSEESSNKGQRQLTVSSSVSNVNLTLRPGVPTQAPINAQMLAQRQREILNQHLRQRQMQQQVQQRTLMMRGQGLNVTPSMVAPAGLPAAMSNPRIPQANAQQFPFPPNYGISQQPDPGFTGATTPQSPLMSPRMAHTQSPMMQQSQANPAYQPTSD
# B8: GRIP1 amino acids 730-1121, translated in vitro (other, UniProt Q61026 730-1121, looked up)
# chain: VKQEPASPKKKENALLRYLLDKDDTKDIGLPEITPKLERLDSKTDPASNTKLIAMKTVKEEVSFEPSDQPGSELDNLEEILDDLQNSQLPQLFPDTRPGAPTGSVDKQAIINDLMQLTADSSPVPPAGAQKAALRMSQSTFNNPRPGQLGRLLPNQNLPLDITLQSPTGAGPFPPIRNSSPYSVIPQPGMMGNQGMLGSQGNLGNNSTGMIGSSTSRPSMPSGEWAPQSPAVRVTCAATTGAMNRPVQGGMIRNPTASIPMRANSQPGQRQMLQSQVMNIGPSELEMNMGGPQYNQQQAPPNQTAPWPESILPIDQASFASQNRQPFGSSPDDLLCPHPAAESPSDEGALLDQLYLALRNFDGLEEIDRALGIPELVSQSQAVDAEQFSSQE
# notes: range 730-1121; also called GRIP1 (730-1121); not shown: translation start and HA tag encoded by pSG5.HA
# Assays:
# [1] = target: T1, CARM1 fused to Gal4AD (pGAD10.CARM1) (mouse, UniProt Q4AE70 3-651 (rat entry)); assay: yeast two-hybrid, β-galactosidase activity
# T1 construct: Yeast two-hybrid prey; also called CARM1-AD hybrid protein; CARM1(3-608)
# T1 sequence: B4 chain
# Experimental: (§1) Sub-fragments of the GRIP1 C-terminal domain (GRIP lc), fused with the Gal4 DBD, were tested in the yeast two-hybrid system as described previously (Ding, X. F. et al. (1998) Mol. Endocrinol. 12:302) for binding to CARM1 or to α-actinin, fused to Gal4AD. β-galactosidase (β-gal) activity indicates interaction between the two hybrid proteins.
# [2] = target: T1, CARM1 fused to Gal4AD (pGAD10.CARM1); assay: yeast two-hybrid, β-galactosidase activity (figure legend)
# Experimental: as §1
# [3] = target: T2, GRIP1 amino acids 5-765, translated in vitro (UniProt Q61026 5-765); assay: GST pull-down on glutathione agarose beads, labeled in vitro translated fragment, SDS-PAGE
# T2 construct: range 5-765; also called GRIP1 (5-765); not shown: translation start and HA tag encoded by pSG5.HA
# Experimental: (§2) The binding of GRIP1c to CARM1 observed in the yeast two-hybrid system was confirmed in vitro, by incubating glutathione S-transferase (GST) fusion proteins attached to glutathione agarose beads with labeled proteins or protein fragments translated in vitro. […] Conversely, GST-GRIP1c bound CARM1 and the VLD to AAA mutant of CARM1 (FIG. 3B). GST-CARM1 not only bound GRIP1 but also the other two members of the p160 coactivator family, SRC-1a and ACTR (FIG. 3A). […] GST fusion proteins of CARM1 or the indicated GRIP1 fragments produced in E. coli strain BL21 (Stratagene), were bound to glutathione-agarose beads and incubated with labeled full length CARM1 or p160 coactivators or GRIP1 fragments translated in vitro from vector pSG5.HA-CARM1, pSG5.HA-GRIP1, pSG5.HA-SRC-1a (Chen, D. et al. 1999), or pCMX.ACTR (Chen et al. 1997); bound labeled proteins were eluted and analyzed by SDS polyacrylamide gel electrophoresis as described previously (Hong et al. 1996). A mutant form of CARM1 with the triple amino acid substitution (VLD changed to AAA) shown in FIG. 1 still retains the ability to bind to the C-terminal fragment of GRIP1.
# GST-CARM1 = target: B4; assay: as above
# Experimental: as §2
# T2 sequence (Q61026 5-765): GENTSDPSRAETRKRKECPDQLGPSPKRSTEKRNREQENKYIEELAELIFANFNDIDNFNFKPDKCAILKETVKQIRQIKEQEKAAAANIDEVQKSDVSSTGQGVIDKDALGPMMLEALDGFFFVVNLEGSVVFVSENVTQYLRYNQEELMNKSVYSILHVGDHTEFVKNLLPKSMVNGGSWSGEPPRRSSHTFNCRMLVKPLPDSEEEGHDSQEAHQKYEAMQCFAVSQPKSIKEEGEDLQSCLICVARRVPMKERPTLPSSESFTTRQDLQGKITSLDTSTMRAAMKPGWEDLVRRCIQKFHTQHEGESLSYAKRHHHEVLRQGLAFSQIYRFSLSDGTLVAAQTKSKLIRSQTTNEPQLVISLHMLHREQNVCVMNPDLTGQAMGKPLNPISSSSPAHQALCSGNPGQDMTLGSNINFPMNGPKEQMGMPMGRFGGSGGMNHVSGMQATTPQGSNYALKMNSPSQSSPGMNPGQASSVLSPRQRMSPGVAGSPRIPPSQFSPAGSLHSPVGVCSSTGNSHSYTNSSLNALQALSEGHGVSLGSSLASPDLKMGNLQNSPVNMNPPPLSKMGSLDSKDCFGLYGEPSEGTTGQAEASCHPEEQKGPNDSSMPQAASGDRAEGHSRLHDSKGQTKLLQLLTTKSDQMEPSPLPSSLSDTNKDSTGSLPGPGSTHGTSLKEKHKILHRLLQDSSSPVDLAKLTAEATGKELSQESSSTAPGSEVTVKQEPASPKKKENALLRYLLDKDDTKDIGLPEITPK
Binder,binding result [1],also measured
B1,no binding,
B2,no binding,
B3,,binding result [2]: binds
B4,,binding result [3]: no binding
B5,no binding,
B6,binds,
B7,binds,
B8,,binding result (GST-CARM1): no binding
